Assay results published in US20220378932A1 (published 2022).

Legend:
[1] = biological target: T1, human insulin receptor extracellular domain (HIR ECD) (human, UniProt P06213 28-956, limits assumed); assay: competitive ligand binding assay: displacement of [125I] murine HIRMAb from plated HIR ECD; Scatchard analysis, high affinity site, nonlinear regression
T1 construct: extracellular domain

[2] = biological target: T1, human insulin receptor extracellular …; assay: ELISA on plated HIR ECD, COS cell-derived protein, detection with biotinylated goat anti-human IgG; non-linear regression
[3] = biological target: T2, Fc fusion of the human GFRα1 extracellular domain (GFRα1:Fc fusion protein) (human, UniProt P56159 25-429, limits assumed); assay: ELISA on GFRα1:Fc captured by mouse anti-human Fc antibody, detection with goat anti-GDNF antibody
T2 construct: extracellular domain; Bought (R&D Systems), captured on plates by a mouse anti-human IgG; also called GFRα1 ECD; GFRal; not shown: Fc part of the bought fusion, captured by a mouse anti-human Fc antibody
T2 sequence (looked up): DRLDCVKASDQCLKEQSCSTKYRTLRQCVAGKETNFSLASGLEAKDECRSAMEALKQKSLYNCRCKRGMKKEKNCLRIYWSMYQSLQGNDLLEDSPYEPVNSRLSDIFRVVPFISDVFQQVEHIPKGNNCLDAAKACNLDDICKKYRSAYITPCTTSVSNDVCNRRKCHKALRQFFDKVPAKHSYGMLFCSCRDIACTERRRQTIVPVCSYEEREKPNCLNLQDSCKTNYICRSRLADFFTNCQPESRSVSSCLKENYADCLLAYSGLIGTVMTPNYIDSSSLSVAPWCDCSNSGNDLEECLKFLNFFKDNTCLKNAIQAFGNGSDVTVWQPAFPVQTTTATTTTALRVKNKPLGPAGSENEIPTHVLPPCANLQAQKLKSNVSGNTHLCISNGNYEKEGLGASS

[4] = biological target: T2, Fc fusion of the human GFRα1 …; assay: ELISA on GFRα1:Fc captured by mouse anti-human IgG, detection with goat anti-GDNF antibody
[5] = biological target: T2, Fc fusion of the human GFRα1 …; assay: ELISA on captured GFRα1:Fc (format of FIG. 33), run with the CHO-derived fusion protein

B1: chimeric HIRMAb (Examples 3 and 4) (antibody, human IgG1, kappa)
heavy: not shown
light: DIQMTQSPSSLSASLGERVSLTCRASQDIGGNLYWLQQGPDGTIKRLIYATSSLDSGVPKRFSGSRSGSDYSLTISSLESEDFVDYYCLQYSSSPWTFGGATKMEIKRTVAAPSVFIFPPSDEQLKSGTASVVCLLNNFYPREAKVQWKVDNALQSGNSQESVTEQDSKDSTYSLSSTLTLSKADYEKHKVYACEVTHQGLSSPVTKSFNRGEC
notes: also called chimeric form of the HIRMAb; product of clone 400
Ki [1]: 0.63 nM

B2: chimeric HIRMAb (Examples 15 and 16) (antibody, human IgG1, kappa, V domains shown)
VH: QVQLQQSGPELVKPGALVKISCKASGYTFTNYDIHWVKQRPGQGLEWIGWIYPGDGSTKYNEKFKGKATLTADKSSSTAYMHLSSLTSEKSAVYFCAREWAYWGQGTLVTVSA
VL: DIQMTQSPSSLSASLGERVSLTCRASQDIGGNLYWLQQGPDGTIKRLIYATSSLDSGVPKRFSGSRSGSDYSLTISSLESEDFVDYYCLQYSSSPWTFGGGTKMEIKR
notes: also called COS cell-derived chimeric HIRMAb; CHO-derived HIRMAb
EC50 [2]: 0.5 nM
binding result [3]: no binding

B3: recombinant human GDNF (ligand)
chain: SPDKQMAVLPRRERNRQAAAANPENSRGKGRRGQRGKNRGCVLTAIHLNVTDLGLGYETKEELIFRYCSGSCDAAETTYDKILKNLSRNRRLVSDKVGQACCRPIAFDDDLSFLDDNLVYHILRKHSAKRCGCI
notes: Bought (Peprotech); also called recombinant GDNF
EC50 [4]: 1.03 nM
EC50 [5]: 1 nM
